Measured values reported in patent US20230212182A1 (DUALITY BIOLOGICS SUZHOU, published 2023).

T1: Trop2 (UniProt P09758 27-323, limits assumed)
T1 sequence (looked up): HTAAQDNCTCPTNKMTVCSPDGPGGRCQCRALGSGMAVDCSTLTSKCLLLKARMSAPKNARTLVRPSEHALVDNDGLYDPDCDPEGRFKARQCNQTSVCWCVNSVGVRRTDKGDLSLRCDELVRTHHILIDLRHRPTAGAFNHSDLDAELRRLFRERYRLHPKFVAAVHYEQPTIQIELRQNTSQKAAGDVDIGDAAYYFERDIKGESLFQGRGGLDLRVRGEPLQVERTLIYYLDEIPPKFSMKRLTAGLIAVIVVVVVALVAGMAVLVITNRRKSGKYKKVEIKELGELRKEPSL


Target: T1, Trop2
Test: cell-based or functional assay

Binder	IC50 (nM), inhibition of in vitro proliferation of Colo205 cells (CTG, 6 days)	IC50 (nM), inhibition of in vitro proliferation of SK-OV-3 cells (CTG, 6 days)
Reference ADC-2 (Sacituzumab-Deruxtecan) (antibody, human IgG1, kappa, V domains shown, Deruxtecan linker-drug conjugated after TCEP reduction of disulfide bonds (cysteine positions not stated); mean n=4.18 per antibody) VH: QVQLQQSGSELKKPGASVKVSCKASGYTFTNYGMNWVKQAPGQGLKWMGWINTYTGEPTYTDDFKGRFAFSLDTSVSTAYLQISSLKADDTAVYFCARGGFGSSYWYFDVWGQGSLVTVSS VL: DIQLTQSPSSLSASVGDRVSITCKASQDVSIAVAWYQQKPGKAPKLLIYSASYRYTGVPDRFSGSGSGTDFTLTISSLQPEDFAVYYCQQHYITPLTFGAGTKVEIKR	152 nM	501 nM
ADC-II-11-a (antibody, human IgG1, kappa, V domains shown, linker-drug L-II-3 conjugated after TCEP reduction of disulfide bonds (cysteine positions not stated); mean n=3.73 per antibody) VH: QVQLQQSGSELKKPGASVKVSCKASGYTFTNYGMNWVKQAPGQGLKWMGWINTYTGEPTYTDDFKGRFAFSLDTSVSTAYLQISSLKADDTAVYFCARGGFGSSYWYFDVWGQGSLVTVSS VL: DIQLTQSPSSLSASVGDRVSITCKASQDVSIAVAWYQQKPGKAPKLLIYSASYRYTGVPDRFSGSGSGTDFTLTISSLQPEDFAVYYCQQHYITPLTFGAGTKVEIKR	121 nM	448 nM
ADC-III-28 (antibody, human IgG1, kappa, V domains shown, linker-drug L-III-30 conjugated after TCEP reduction of disulfide bonds (cysteine positions not stated); mean n=3.67 per antibody) VH: QVQLQQSGSELKKPGASVKVSCKASGYTFTNYGMNWVKQAPGQGLKWMGWINTYTGEPTYTDDFKGRFAFSLDTSVSTAYLQISSLKADDTAVYFCARGGFGSSYWYFDVWGQGSLVTVSS VL: DIQLTQSPSSLSASVGDRVSITCKASQDVSIAVAWYQQKPGKAPKLLIYSASYRYTGVPDRFSGSGSGTDFTLTISSLQPEDFAVYYCQQHYITPLTFGAGTKVEIKR	77.6 nM	394 nM
